{
  "source": "the DeepSol protein solubility set",
  "data": [
    {"test": "soluble on expression in E. coli; label from the status in PepcDB or PDB records", "values": [
      {"sequence": "MGSDKIHHHHHHMADNTPKFSQGSTSDTVGYEDFLVDLKTRISNAQLRAVVAVNKELVLLYWQIGRDILHRQQQQGWGAKVIDRLASDLRKAFPDIKGFSSRNLKYMRAFAEAYNDEEFVQQAVAQIPWGHNVRLLDAVKDPAERLWYAQQTIQNGWSRNVLVHQIESKLYQRQGKATTNFNNTLPQPQSELAQQLLKDPYTFDFLNLGEDFLERDLERALIKHIRDFLLELGVGFAFVGSQYHLEVGGEDFYIDLLFYHLRLRCFVVIDLKIEDFKPEFSGKMNFYVSAVDDLLRHPNDQSTIGIILCRSKNKVIAEYSLRDMYKPIGVSTYQLKDNLPEFVQDNLPTIEQLESELETVVLKLEKLDDL", "soluble on expression in E. coli": "not soluble"},
      {"sequence": "MKEVEKNEIKRLSDRLDAIRHQQAGLSLVESADKYAELEKEKETLEAEIIRLREVHSQKLSKEAQKLMNLPFRRAITKKEQADMGKLKKSVRGLIVVHPMTALGREMGLKEMTGFAKSEF", "soluble on expression in E. coli": "not soluble"},
      {"sequence": "MRGIRDPRLIPIAEKVMEGKRLSFEDGLVLYQTKDLPTLMRLANLVRERKHGHKTYFVHSIRVSQTNICYVGCTFCAFQRRFGEEGAWDWDVDEVVAWVKERYQPGLTEIHLTAGHHPKRPFAYYLDLVRALKENFPGVQVKAWTAAEIHHFSKIARLPYREVLKALKEAGLDAMPGGGAEIFAERVRRKIARAKVSAEGWLEIHRTAHELGIPTNATMLYGHIETLEERLDHMDRLRRLQDETGGFMSFIPLAFQPDGNQLARELGKKEFTTGLDDLRNLAVARLYLDNFPHIKGYWATLTPELAQVSLDWGVTDVDGTLIEERIVHMAGSPTPQGLTKRELARIILMAGRIPVERDALYREVRVWDRVEA", "soluble on expression in E. coli": "soluble"},
      {"sequence": "MAISDSYLKSCLGRERDKVEEKADRDGLWVRISKKGAVTFFYRFRFLGKQDKMTIGSYPEFGLKAAREEVTKWAAILARGENPRIRQSLDKAKINSQYTFEELFREWHAMVCVQKETSDQILRSFELHVFPKLGKYPAHQLTLHNWLTVLDRLAQGYTEITRRVISNGRQCYSWAVKRQLLEVNPLSEMSGRDFGIQKKMGERTLDRKEIAIVWRAIEDSRLIERNKILYKLSLIWACRVGELRQAEVSHFDFEEGVWTVPWENHKTGRKSKKPIIRPIIPEMLPLIQRAIELAPGRFVFSKYADKPMSEGFHMSISSNLVKFMLKAYNEQVPHFTIHDLRRTARTNFSELTEPHIAEMMLGHKLPGVWSVYDKYTYIEEMREAYSKWWARLMSIIEPDVLEFTPRQTG", "soluble on expression in E. coli": "not soluble"},
      {"sequence": "MVHHKLKNDPSGHDWFHIVRVRNLAVELAHKEGANTFICQMAALLHDIIDDKICQDSKQASYELTQWLYSQDLAIAEVEHILDILENISFKAGTGLTMKTLEGQIVQDADRLDAMGAIGIARTMAYSGSKGRLIHDPNLKPRENLTLEEYRNGQDTAIIHFYEKLLKLKDLMNTKQGKMLAQKRHDFLELYLAEFYAEWNGKRLEHHHHHH", "soluble on expression in E. coli": "not soluble"},
      {"sequence": "MGSDKIHHHHHHMGKVADTLKPGDRVLLSFEDESEFLVDLEKDKKLHTHLGIIDLNEVFEKGPGEIIRTSAGKKGYILIPSLIDEIMNMKRRTQIVYPKDSSFIAMMLDVKEGDRIIDTGVGSGAMCAVLARAVGSSGKVFAYEKREEFAKLAESNLTKWGLIERVTIKVRDISEGFDEKDVDALFLDVPDPWNYIDKCWEALKGGGRFATVCPTTNQVQETLKKLQELPFIRIEVWESLFRPYKPVPERLRPVDRMVAHTAYMIFATKVCRREETE", "soluble on expression in E. coli": "not soluble"},
      {"sequence": "MRPLKISRDELLQRCAGTFRRYGYHGTTMEMLSSACGLTKASFYHHYPNKEALLRDVLEWTHQRLAETLFSIAYDPLLTPRERLEKLGRKAARLFQDDSIGCLMGVVAVDASYGRSELMAPIRSFLDDWAQAFAQLYRPAFDEAQALERGRQLVADFEGAILLARIYGEPGYIDGVTRRALEQLAG", "soluble on expression in E. coli": "not soluble"},
      {"sequence": "MSLTPSVSTKELEGGLLIVDEMSMVDTWLANTLFKAIPTNMQVILVGDKDQLPSVGPGQVLHDLLEIEQIPKMELNQIYRQGDGSSIIPLAHEIKEGRLPKDFTKNQKDRSYFRSDAYQIEPLISKIVEKAKNKGFRAQDIQVLAPMYRGPAGIDALNKMMQEIFNPGKPGKKEVHWNDTVYRIGDKVLQLVNTPELNVFNGDMGEITGIILAKDSEDKVDELVIQFDANEVTYKRNEWNKITLSYCCSIHKSQGSEFKMVILPMVHQYQRMLQRNLLYTAVTRSKELLILLGEEQAYVTCVANESASRMTTLKSRIMDNDKMNEGHHHHHH", "soluble on expression in E. coli": "not soluble"},
      {"sequence": "MIIATAGHVDHGKTTLLQAITGVNADRLPEEKKRGMTIDLGYAYWPQPDGRVLGFIDVPGHEKFLSNMLAGVGGIDHALLVVACDDGVMAQTREHLQILQLTGNLQLTVALTKADRVDEARIGEVREEVLAALDNYGFADTVLFVTAANEGRGIAELRAHLQQLPARSHAAQHRFRLAIDRAFTVKGAGLVVTGTALSGEVNVGDTLWLTGVNTPMRVRSLHAQNQPTDHAYAGQRIALNIAGDAEKEQLNRGDWLLSDAPVGEAFSRVIVSLALHAPLSQWQPLHIHHAASHVTGRVSLLEGGLAELIFDTPLWLADNDRLVLRDISARATLAGARVVTLKAPRRGKRKPDYLHWLSTLAAAQDDSAALAIHLERGAVNLPDFGWARQLNPLGMRQLIEQHGFIQAGDNLLSAPVAARWQRKILDTLATYHEQHRDEPGPGRERLRRMALPMEDEALVLMLIERMRDDGLIHSHHGWLHLPDHKAGFSDEQQAVWQKVEPLFGDEPWWVRDLAKETGTEEQLMRLVLRQAAQQGIITAIVKDRYYRNDRIVAFANMIRELDQERGSTCAADFRDRLNVGRKLAIQILEYFDRIGFTRRRGNDHLLRDALLFPQKE", "soluble on expression in E. coli": "not soluble"},
      {"sequence": "MGSDKIHHHHHHMKNNTGYIIGAYPCAPSFHQKSEEEETEFWRQLSDTPDIRGLEQPCLEHLHPLGDEWLLRHTPGNWQIVVTAIMETMRRRSENGGFGLASSDEEQRKACVEYYRHLYQKINKINGNNTGKVIALELHAAPLAGNPNVAQATDAFARSLKEIANWDWSCDLVLEHCDAMTGPAPRKGFLPLVNVLETIADYDISVCINWARSAIEGRDTSLPLIHTQQAKQAGKLGALMFSGTTLDGEYGEWQDLHAPFAPFCPQSLMTEKHVKELITAAAPELLQFTGIKLLEINASADINHRINILRDGINMMKKATRR", "soluble on expression in E. coli": "not soluble"},
      {"sequence": "MAGFPGKEAGPPGGWRKCQEDESPENERHENFYAEIDDFAPSVLTPTGSDSGAGEEDDDGLYQVPTHWPPLMAPTGLSGERVPCRTQAAVTSNTGNSPGSRHTSCPFTLPRGAQPPAPAHQKPTAPTPKPRSRECGPSKTPDPFSWFRKTSCTEGGADSTSRSFMYQKGFEEGLAGLGLDDKSDCESEDESNFRRPSSHSALKQKNGGKGKPSGLFEHLAAHGREFSKLSKHAAQLKRLSGSVMNVLNLDDAQDTRQAKAQRKESMRVPIVTHLTNHVPVIKPACSLFLEGAPGVGKTTMLNHLKAVFGDLTIVVPEPMRYWTHVYENAIKAMHKNVTRARHGREDTSAEVLACQMKFTTPFRVLASRKRSLLVTESGARSVAPLDCWILHDRHLLSASVVFPLMLLRSQLLSYSDFIQVLATFTADPGDTIVWMKLNVEENMRRLKKRGRKHESGLDAGYLKSVNDAYHAVYCAWLLTQYFAPEDIVKVCAGLTTITTVCHQSHTPIIRSGVAEKLYKNSIFSVLKEVIQPFRADAVLLEVCLAFTRTLAYLQFVLVDLSEFQDDLPGCWTEIYMQALKNPAIRSQFFDWAGLSKVISDFERGNRD", "soluble on expression in E. coli": "not soluble"},
      {"sequence": "MLEIKRYKNRVASRKCRAKFKQLLQHYREVAAAKSSENDRLRLLLKQMCPSLDVDSIIPRTPD", "soluble on expression in E. coli": "soluble"},
      {"sequence": "MGSDKIHHHHHHMKLFRPVDGRPNSGSSCILRSYYIIMAYMSMPIASQRQEKDMTEDIRSRIGLRPVINVSGTMTSLGASIVVPEAVEAMAAILPQFVEINDLQRKASAIIARLTGGEAGFVTASCSSGISLAVAGAITGNNLLAIEKLPDIAPEKNEVLVQMGHVVSYGAPVDQAIRLGGGKVVLVGQATSTHRYHMENAITEKTAAAVYVVSHHVVDYGLLHLSEFVEIAHAKGVPVIVDAASEYDLELFLATGADVVLYSGHKFLGGPTSGIVAGSKELVRHAFLQNMGIGRGMKVGKESIYGVMAALEAWEKRDHAGIRERETGYLNLWKKTLDGRPGVTALIEPDPTNNPLDRMRVIIDADEAHITAWDLTTALARGNPPIITRDHEVEHRYFYLDPCNLHPGQETIVASRLAEELDKARASNEMIATPFEDRSRHRFDGMLCWPD", "soluble on expression in E. coli": "not soluble"},
      {"sequence": "MGSDKIHHHHHHMTIRSKFALFAGSSSYILLHKILHRGGTSLPGKIAYRIDPTFLEEFRDQIETVIVSGTNGKTLTTALCARVLKKTNRVVVTNNSGSNMIQGIVAALLSQKDKIKKSIRHGTIPIAVLEVDEANVKEVAKILQPTHFVLTNIFRDQMDRYGEIYTTYEKITDGIKTAPKAKVVANGDSPIFARKPYKNQAVYFGFTHKKSVGDLRAPNNTDGVLAPTNDQVLHYHYLTYANLGDYFTKDGSFKRPQLKYSVNKINSLTPSKSEFEIAGNKFTLPLGGLYNIYNALAAYSLGREFQISAEDIFNALNEDSRIFGRQEQLTIGSHLVTIVLIKNPVGANSVIDMMMTDPEEFSLVTLLNANYADGIDTSWIFDAEFEKLHQTALKKIIVGGQRYKDFSVRLKMAGFKNQIVEQDFAKLIDRIKELPTKNVYVAATYTSMLMFREELAKAGLAKESF", "soluble on expression in E. coli": "not soluble"},
      {"sequence": "MNKRRVKPEHVRREEIVNAAYEVIFEVGLSNTTMAQIAKKAQLSVGIVSHYFGDKQGLINACMLEMLNVLRRKTAQYKAEVQDSHPESMIKAIIDSNFDISQVNQRAMRIWLDFWSASMHMPELSRLQRINDQRLYSNLKFHFLELMPKDQASIAARGLAALIDGLWLRGSLSQDTTFDSTLARSIAYDYVDTQLKLVKQIRQERQNE", "soluble on expression in E. coli": "not soluble"},
      {"sequence": "MAHHHHHHSLKIRQARLEDLDRIVELEFENFSVEEAIPPSVFEAHLREIQTSFLVAEKEGRIMGYIEGPVGLHRHLQDQSFTEEIKDYSHEPGGYISVTCLSIAKEAQGLGLGQKLLTALKEVALEDERDGINLTCHDYLIAYYEKHGFVNEGQSQSTFAGETWYDMVWEMKKEG", "soluble on expression in E. coli": "not soluble"},
      {"sequence": "MSIFNKDALSSFFGLSGEEDDYYDNYEEYEERKAVNEPPRRAARPKPQRPVQQQESYSQPAYTQQSEPVVEKPSARYRSAEAHQERDTQQAAYTEKKVVSMRSSNQSATTNTRRAQESTANAKTHKITIIEPRVYSEAMSIAKHLFAEEAVLVNFTLVEEDQARRIVDFLTGTVYALDGDIQRVGNEIFLCTPANMEIDSATAQSLANKQFFDFLEHHHHHH", "soluble on expression in E. coli": "not soluble"},
      {"sequence": "MTLYRQLLAREKENNPIRVGVIGAGQMGFGMISQIAAIPGMSVVGISDIHVDAAKKAADAYNATATKKEKILLSNDFKEIIHSDLVEVIVDATGVPEVGAKISLETLLAKKQLVLLNVEIDITIGPLMKKLYDSAGLVYTGSDGDEPAAITELYEFSKSMGMEVLVAGKGKNNKLKISANPDSCQVEADGKNMASHMLAAFQDGTKTMAEMNLLSNAIGYVPDVVGMHGISGDVDSVIKDLDLKEQGGILNQFGVVEYVDGLAPGVFVIVKGQNEGVSHELSYLMKKGERDHHILYRPYHLASLETPLTIAKAVLNHDHAIVPMGAPVSETVAVAKKDIAAGERLDGIGGFCVRGVLETHVDMAAEGHIPIGLISGEVVARRNIKAGTFITDEDVSLDESTTVWKLRKLQDETFSN", "soluble on expression in E. coli": "not soluble"},
      {"sequence": "MGSDKIHHHHHHMNLTGCGEKFYQHCKVILSEFEWATYEISYNQQYPEGELKLNTPMSFSNIFLQHIISDFIEKYPSIKIDLFMTDQLLDVNQHKFDLTIRLDGSAPSLANSKILNTYQRYLYATPEYFNQHGLPTSLEELKEHKFLIYYQDSRHKKLIFQKDQKEVSFNCFPVMTCNNGELLLDMCLKDHGIVFLPEFIAEPYYKEGKLQKCLEDYTSQPLHLYVTWPNRKILSKKVKLFIDFLTHQIIPIK", "soluble on expression in E. coli": "not soluble"}
    ]}
  ]
}
